This note sets out measurements from US20240374585A1, “EPITHELIAL SODIUM CHANNEL (ENAC) INHIBITOR CONJUGATES AND METHODS FOR USE THEREOF” (Lung Therapeutics, Inc., priority 2021, published 2024).

Molecules are shown by their SMILES. Where two headings read alike, the source gives them in different places.

The nature of this data set: Pharmacokinetics in blood, lung tissue and BALF of rats after intratracheal administration. In kind it is in vivo. On the procedure: The pharmacokinetic profile of the conjugates of the present invention was determined in blood and lung tissue of rats.
Peptide Conj. 8 (SEQ ID NO: 45) and Conj. 9 (SEQ ID NO: 46) were formulated in 0.9% saline and intratracheally administered to 5-7 week-old rats (Sprague Dawley; male; 224-250 g). The pharmacokinetic profile of the peptide conjugates was then determined in blood and lung tissue.
For subgroup A, whole blood samples were collected from animals at 0.083, 0.25, and 0.5 hours following drug administration and for subgroup B, whole blood samples were collected at 0.75, 1, and 2 hours following drug administration for plasma analysis. Lung and bronchoalveolar lavage fluid (BALF) were collected at 0.5 and 2 hours following drug administration.
Whole blood was collected by tail nick at the predetermined time points and then maximal volume by cardiac stick for the final time point. The plasma was spun and collected within 30 minutes of collection. Upon euthanasia of the animal, a necropsy was performed and lungs harvested and weighed for analysis. After weighing the lungs, BALF was collected with 0.5 mL of 0.9% saline. The lungs were then reweighed after BALF collection. Lung, BALF, and plasma samples were frozen until analysis.
Frozen lung tissue was homogenized using a Precellys Evolution tabletop homogenizer (3×6500 rpm) with 4× dilution using normal rat plasma. 50 μL aliquots of homogenized lung tissue was then transferred into a 96 well plate for extraction with methanol. Harvested BALF was transferred in 25 μL aliquots into a 96 well plate and diluted with 25 μL of rat plasma before extraction with methanol. Plasma samples were transferred in 50 μL aliquots into a 96 well plate for extraction with methanol.
Standards were prepared by producing a working stock solution of Conj. 8 and Conj. 9 at 1 mg/mL. The Conj. 8 assay was performed using Conj. 9 as an internal standard at 1000 ng/mL. The Conj. 9 assay was performed using Conj. 8 as an internal standard at 1000 ng/mL.
Extraction was performed by direct precipitation with 3 volumes (150 μL) of methanol containing 1000 ng/ml of Conj. 8 and Conj. 9 as an internal standard. The plate was vortexed, followed by centrifugation (10 minutes at 4° C. and 2500 g) and dried down under heated nitrogen. Reconstitution was in 100 μL of initial mobile phase A (0.1% TFA: 0.1% FA in water) with 5% of mobile phase B (CAN, 0.1% TFA: 0.1% FA), before placing in an autosampler.
Plasma, lung, and BALF samples were analyzed for Conj. 8 and Conj. 9 by liquid chromatography with tandem mass spectrometry (LC/MS/MS) (API 4000; Kinetex® 2.6 μm C18 Column 50×2.1 mm; column temp.=50° C.; mobile phase A-0.1% TFA: 0.1% FA in water; mobile phase B-ACN, 0.1% TFA: 0.1% FA; flow rate-0.25 mL/min). Pharmacokinetic parameters were derived using sparse sampling noncompartmental analysis methods of Phoenix WinNonLin® version 8.0 (Certara USA, Inc.).
Tmax, the time after dosing at which the maximum concentration was observed; Cmax, the maximum observed concentration measured after dosing; AUClast, the area under the concentration versus time curve from the start of dose administration to the last observed quantifiable concentration calculated using the log/linear trapezoidal method; and MRTlast, mean residence time as defined by AUMClast/AUClast.

Where [1] appears, read: male, Sprague Dawley, bronchoalveolar lavage fluid (BALF), other: intratracheal; BALF; rat, IT, 5 mg/kg.
Where [2] appears, read: male, Sprague Dawley, lung tissue, other: intratracheal; Lungs; rat, IT, 5 mg/kg.
Setting [3] is: male, Sprague Dawley, lung, other: intratracheal; Lungs; rat, IT, 5 mg/kg.
Where [4] appears, read: male, Sprague Dawley, other: intratracheal; BALF; rat, IT, 5 mg/kg.
The mark [5] stands for this setting: male, Sprague Dawley, other: intratracheal; Plasma; rat, IT, 5 mg/kg.

In general, MRT last refers to a mean duration of stay, worked out from the concentration-time curve. The term AUC(0-t) denotes exposure summed from dosing to a finite time, without extrapolation to infinity. A higher AUC(0-t) goes with more exposure. One may read the Tmax as the time from dosing to the highest level.

Take `CC(=O)N[C@@H](Cc1cn(CCCCNC(N)=NC(=O)c2nc(Cl)c(N)nc2N)nn1)C(=O)NCCCCCC(=O)N[C@@H](C)C(=O)N[C@@H](CO)C(=O)N[C@@H](Cc1c[nH]cn1)C(=O)N[C@@H](CC(C)C)C(=O)N[C@@H](CCCNC(=N)N)C(=O)N[C@@H](CCCCN)C(=O)N[C@@H](CC(C)C)C(=O)N[C@@H](CCCNC(=N)N)C(=O)N[C@@H](CCCCN)C(=O)N[C@@H](CCCNC(=N)N)C(=O)N[C@@H](CC(C)C)C(=O)N[C@@H](CC(C)C)C(N)=O` [Conjugate 8]: the “plasma concentration (limit of quantitation)” value (all plasma samples; rat, IT, 5 mg/kg) is less than 25 ng/mL. For the same molecule, the MRT last runs as follows: under setting [1], 75.6 min; under setting [2], 69.6 min. Moreover, the level at 0.5 h (male, Sprague Dawley, bronchoalveolar lavage fluid (BALF); 0.5 h; rat, IT, 5 mg/kg; read-out: BALF concentration) amounted to 2910 ng/mL. For the same molecule, the level at 2 h (male, Sprague Dawley, bronchoalveolar lavage fluid (BALF); 2 h; rat, IT, 5 mg/kg; read-out: BALF concentration) was 3990 ng/mL. Also, the AUC(0-t) reads like this: under setting [3], 22500 ng·h/mL; under setting [4], 5910 ng·h/mL. Besides, the Tmax is, setting by setting: under setting [3], 120 min; under setting [4], 120 min. For the same molecule, the Cmax was 3990 ng/mL (male, Sprague Dawley, rat, BALF, other: intratracheal, 5 mg/kg, BALF, IT, read-out: Cmax); 13200 ng/mL (male, Sprague Dawley, rat, lung, other: intratracheal, 5 mg/kg, Lungs, IT, read-out: Cmax); approximately 13000 ng/mL (male, Sprague Dawley, rat, lung, other: intratracheal, 5 mg/kg, at both 0.5 h and 2 h, IT, read-out: approximate mean Cmax concentration in lung tissues).
For the molecule `CC(=O)N[C@@H](Cc1cn(CCCCNC(N)=NC(=O)c2nc(Cl)c(N)nc2N)nn1)C(=O)NCCCCCC(=O)N[C@H](C(=O)N[C@@H](CO)C(=O)N[C@@H](CCCCN)C(=O)N[C@@H](CCCNC(=N)N)C(=O)N[C@@H](CCCNC(=N)N)C(N)=O)C(C)C` [Conjugate 9, Ac-(AmilCC2-Pgy)-Ahx-VSKRR-NH2], the MRT last reads like this: under setting [1], 39.8 min; under setting [2], 55.9 min; under setting [5], 29.5 min. Also, the Tmax runs as follows: (male, Sprague Dawley, inhaled or intranasal; Plasma; rat, IT, 5 mg/kg) 30 min; under setting [3], 30 min; under setting [4], 30 min. Also, the AUC(0-t) turned out to be 362 ng·h/mL under setting [3], 2380 ng·h/mL under setting [4] and 293 ng·h/mL under setting [5]. Further, the Cmax stood at 352 ng/mL (male, Sprague Dawley, lung, other: intratracheal; Lungs; rat, IT, 5 mg/kg; read-out: Cmax); 4290 ng/mL (male, Sprague Dawley, other: intratracheal; BALF; rat, IT, 5 mg/kg; read-out: Cmax); 2290 ng/mL (male, Sprague Dawley, other: intratracheal; Plasma; rat, IT, 5 mg/kg; read-out: Cmax).
